A short description of the series: yeast display, Sf9 membrane polyspecificity reagent, FACS + sequencing; frameworks hold sequencing errors. The procedure, abridged:
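Sorting gates, low and high (top ~1%), were placed on anti-HA fluorescence to track expression and on streptavidin fluorescence to track reagent binding. A clone's polyreactivity label is taken from the gate it came out of. The reagent was 10% biotinylated, detergent-solubilized Sf9 membrane, applied for 1 hour at 4 °C to galactose-induced yeast display cells.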
Regarding “QVQLVESWGGLVQAGGSLRLSCAASGSIFYRYAMGWYRQAPGKEREFVAAIRWRGGSTYYADSVKGRFTISRDNAKNTVYLQMNSLKPEDTAVYYCAAPTVQRYNYWGQGTQVTVSS”, the “polyreactivity (PSR sort gate)” value was “high polyreactivity”. As for “QVQLVESGGGLVQAGGSLRLSCAASGSILKSNAMGWYRQAPGKERELVAAITYRDGSTYYADSVKGRFTISRDNAKNTVYLQMNSLKAEDTAVYYCAAEPSWWNVFYPGYNYWGQGTQVTVSS”, the “polyreactivity (PSR sort gate)” value is on record as “high polyreactivity”. Under “QVQLVESGGGLVQAGGSLRLSCAASGRIFLTNAMGSYRQAPGKERELVAAIRFSGGRTYYADSVKGRFTISRDNAKNTVYLQMNSLKPEDNAVYYCAADPPRTRYRNARFDYWGQGTQVTVSS” stands “high polyreactivity”. For “QVQLLESGGGLVQAGGSLRLSCAASGYTFTWYAMGWYRQAPGTEREFVAAISIGGDSTYYADSVKGRFTNSRDNAKNTVYLLMNSLIPEDTAVYYCAADTYPRWILLIGELQVETSYDYWGQGTQVTVSS”, the “polyreactivity (PSR sort gate)” value is listed as “low polyreactivity”. The same measure for “QVQLGESGGGLVQAGGSLRLSCAASGYIFAYYAMGWSRQAPGKERELVAAISRSGGSTYYADSVKGRFTISRDNAKNTVYLEMISLKPEDTAVSYCAARSTGNYEREYNYWGQGTQVTVSS”: “high polyreactivity”. Regarding “QVQLVESGGGLVQAGGSLSLSCAASGSIFYVYAMGWYRQAPGKERELVASINKSGGSTYYADSVKGRFTISRDNAKNTVYLQMNSLKPEDTAVYYCAARYGWPRVGFQYPAHVGFDYWGQGTQVTVSS”, the “polyreactivity (PSR sort gate)” value was “low polyreactivity”. On to “QVNLLDSGGGLVKAGGSLRLTCAASGSIYHPYTMGLYRQATGKETELVAAISWSGGNTNYADSVKGRFTISRDYAKNTVYLQMNSLKPEDTAVYYFAAAKRDFVEYDYWGEGTQVTVSS”, for which the “polyreactivity (PSR sort gate)” value was “low polyreactivity”.

As for “QVQLQESGGGLVQAGGSLRLSCAASGSISGPHVMGWYRQAPGKEREFVAAINVGANTYYADNVKGRFTISRDNAKNTVYLQMNSLKPEDTAVYYCAAEYGIYETGHYGIYDYWGQGTQVTVSS”, the “polyreactivity (PSR sort gate)” value is listed as “low polyreactivity”. On to “QVQLVESGGGLVQAGGSLRLSCAASGRIYYNAMGWYRQAPGKEGELVAAISGSGTRTYYADSVKGRFTISRDNAKTTVYLQMNSQKPEDTAVYYCARYYSHYSTYDYVRYGYWGQGTQVTVSS”, for which the “polyreactivity (PSR sort gate)” value is “high polyreactivity”.

Consider “QVQLVESGGGLVQAGGSLRLSCAASGRTLDWNAMGWYRPAPGKERELVAAISWSGDSTYYADSVKGRFTISRDNAKNTVYLQMNSLKPEDTAVYYCAAAGVYYGVRGTTYAFDYWGQGTQVTVSS”, for which the “polyreactivity (PSR sort gate)” value was “low polyreactivity”. For “QVQLVESGGGLVQAGGSLRLSCAASGSIFWVYAMGWYRQAPGKEREFVATISTDGGSTHYADSVKGRFTISRDNAKNTFYLQMNSLKPEDTAVYYCAADTPWYDDNYDYWGQGTQVTVSS”, the “polyreactivity (PSR sort gate)” value was “low polyreactivity”. “QVQLQESGGGMVQAGGSLRLSCAASGYISWADNMAWYRQAPGKERELVAGIGYGSTTYYADSVKGRFTISRDNAKNTAYLQMNSLKPEDTSVYYCAVGWYRDTAYKYWGQGTQVTVSS”: the “polyreactivity (PSR sort gate)” value was “low polyreactivity”.

For “QVQLVESGGGLVQAGGRLRISCAASGSIFKGYARGWSRQGPGKERELVAAISGSGTSTYYADSVKGRFTISRDNAKNTVYLQMNSLTPEDTAVYYCATGWYTVFSRRMYSWGQGTQVTVSS”, the “polyreactivity (PSR sort gate)” value is “high polyreactivity”. The same measure for “QVQLVESGGGFVQAGGSLRLSCAASGSTFAYYAMGWDRQAPGKERELVAAITRGGRTYYADSVKGRFTISRDNPKNTVYLQMNSQKPDDTAVYYCNARKYTWYSSRFIRFDYWGQGTQVTVSS”: “high polyreactivity”; for “HVQRVESGGGLVQAGASLRLSCAASGGIFSPNAMGWYRQAPGKERELVAAISSNGGSTNYADSVKGRFTISRDNAKNTVYLQMNSLKPEDTAVYYCAGLQKRRSYWRPFYWGQGTQVTVSS”: “low polyreactivity”; for “QVQLVESGGGLVQAGGSLRLSCAASGFTFVGYAMGWYRQAPGKERELVAAITRRGGSTYYADSVKGRFTISRDNAKNTVYLQMNSLKPEDTGVYDCNKASYRISVPRYDYWGQGTQVTVSS”: “high polyreactivity”. Regarding “QVQLVESAGGLVQAGGSLRLSCAASGFIFVKYAMGWDRQAPGKERELVAAISSRGGITYYADSVKGRYTISRDNAENTVYLQMISLKPADTAVYYCNTVSRGYRGNYWGQGTQVTVSS”, the “polyreactivity (PSR sort gate)” value is reported as “low polyreactivity”. As for “QVQLVESGGGLVQAGGSLRLSCAASGFISSENAMGWYRQAPGKERELVAATSSGGSTNYADSVKGRFTISRDNAKNTVYLQMNSLKPEDTAVYYCAALFPKNLQKVGRYDYWGQGTQVTVSS”, the “polyreactivity (PSR sort gate)” value was “low polyreactivity”. For the sequence “QVQLLESGGGLVQAGGTLRLSCSASGGIFVNYAMGWYRQAPGKERELVAAISRSGGSTYYADSVKGRFTISRDNAKNTVYLQLNSLKPEVTAVYYCNAVLQKYRFEYDYWGQGSQVTVSS”, the “polyreactivity (PSR sort gate)” value was “high polyreactivity”.

Consider “QVQLVESGGGLVQAGCSLRLSCAASGRTFYPYAMGWYRQAPRKERELVAAINWSGTSTYYADSVKGRFTISRDNAKNTVYLQMNSLKTEDTAVYYCAAKQYPVLHYSLTEADMDYWGQGTQVTVSS”, for which the “polyreactivity (PSR sort gate)” value is “low polyreactivity”.

Values taken from the nanobody polyreactivity screen of Harvey et al. (2022).
